This is an account of results in the RNAGym collection of RNA variant scans (doi:10.1073/pnas.2313332121).

This sample holds only a part of the variants without activity. A value given as a limit tells only on which side of the number the result lay.

B1: TPR 5TU (parent)
chain: GGAUCUUCUCGAUCUAACAAAAAAGACAAAUCUGCCACAAAGCUUGAGAGCAUCUUCGGAUGCAGAGGCGGCAGCCUUCGGUGGCGCGAUAGCGCCAACGUUCUCAACUAUGACACGCAAAACGCGUGCUCCGUUGAAUGGAGUUUAUCAUG

This series covers variants of B1. Put plainly: polymerase ribozyme fitness, log enrichment relative to wild type (log ratio); higher = more active; in vitro selection for triplet polymerase activity. A digest of the protocol:
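One round of in vitro selection, in triplicate, was applied to PCR-built, transcribed mutant libraries of each subunit of a heterodimeric triplet polymerase ribozyme. The steps were annealing with a biotinylated primer, partner subunit and triplets, incubation frozen at −7 °C, gel excision of extended constructs, streptavidin-bead capture and RT-PCR. Fitness is the logarithm, base 2, of genotype enrichment over wild-type enrichment from inverse-variance-weighted replicate averages of Illumina-sequenced inputs and outputs, keeping genotypes with ≥10 input reads and ≥1 read per output.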
As for GGAUCUUCUCGAUCUAACAAAAAAGACAAAUCUGCCACAAAGCUUGAGAGCAUCUUCGGAUGCAGAGGCGGCAGCCUUCGGUGGCGCGAUAGCGCCAAUGUUCUCAACUAUGACACGCAAAACGCUUGCUCCGUUGAAUGGAGUUUAUCAUG [C99U G126U], the “polymerase ribozyme fitness (log ratio)” value was -0.0913. With GGUUCUUCUCGAUCUAACAAAAAAGACAAAUCUGCCACAAAGCUUGAGAGCAUCUUCGGAUGCAGAGGCGGCAGCCUUCGGUGGCGCGAUAGUGCCAACGUUCUCAACUAUGACACGCAAAACGCGUGCUCCGUUGAAUGGAGUUUAUCAUG [A3U C93U], the “polymerase ribozyme fitness (log ratio)” value was -1.81. For GGAUCUUCUCGAUCUAACAAAAAAGACAAAUCUGCCAUAAAGCUUGAGAGCAUCUUCGGAUGCAGAGGCGGCUGCCUUCGGUGGCGUGAUAGCGCAAACGUUCUCAACUAUGACACGCAAAGCGCGUGCUCCGUUGAAUGGAGUAUAUCAUG [C38U A73U C87U C96A A122G U145A], the “polymerase ribozyme fitness (log ratio)” value was -2.54.

Consider GGAUCUUCUCGAUCUAACAAAAAAGACAAAUCUGCCAUAAAGCUUGAGAGCAUCUUCGGAUGCAGAGGCGGCAGCUUUCGGUGGGGCGAUAGCGCAAACGUUAUCAACUAUGAUACGCAAAACGCGUGCUCUGUUGAAUGGAGUUUAUCAUG [C38U C76U C85G C96A C103A C114U C132U], for which the “polymerase ribozyme fitness (log ratio)” value was -4.19.

Regarding GGAUCUUCUCGAUCUAACAAAAAAGACAAAUCUGCCACAAAGCUUGAGAGCAUCUUCGGGUGCAGAUGCGGCAGCCUUCGGUGGCGCGAUAGGGCCAACGUCCUCAACUAUGACACGCAAAACGCGUGCUCCGUUGAAUGGAGUUUAUCAUG [A60G G67U C93G U102C], the “polymerase ribozyme fitness (log ratio)” value was ≤ -4.2. On to GGAUCUUCUCGAUCUAACAAAAAAGACAAAUCUGACACAACGCUUGAGAGCAUCUUUGGAUGCAGAGGCGGCAGCCUUCGGUGGGGCGAUAGCGCCAACGUUCUCAACUAUGACACGCAAAACGCGUGCUCCGUUGAAUGGAGUUUAUCAUG [C35A A41C C57U C85G], for which the “polymerase ribozyme fitness (log ratio)” value was ≤ -4.2.

For the variant GGAUCUUCUCGCUCUAACAAAAAAGACAAAUCUGCCACAAAGCUUGAGAGCGUCUUCGGAUGCAGAGUCGGCAGCCUUCGGUGGCGCGAUAGCGCCAUCGUUCUCAACUAUGACACGCAAAACGCGUGCUCCGUUGAAUGGAGUUUAUCAUG [A12C A52G G68U A98U], the “polymerase ribozyme fitness (log ratio)” value was -4.19. The same measure for GGAUCUUCUCGAUCUAACAAAAAAGACAAAUGUGCCACAAAGCUUAAGAGCGACUUCGGUUGCAGAGGCGGCAGCCUUCGGUGGCGAGUUAGCGCCAACGUUCUCAACUAUGACACGCAAAACGCGUGCUCCGUUGAAUGGUGUUUAUCAUG [C32G G46A A52G U53A A60U C87A A89U A142U]: ≤ -4.2. As to GGAUCUUAUCGAUCUAACAAAAAAGACAAAUCUGCCACAAAGCUUGAGAGCAUCUUCGGAUGCAGAGGCGGCAGCAUUCGGUGGUGCGAUAGCGCCAACGUUCUCAACUAUGACACGCAAAACGCGUGCUCCGUUGAAUGGACUUUAUCUUG [C8A C76A C85U G143C A150U], the “polymerase ribozyme fitness (log ratio)” value was ≤ -4.2. Take GGAUCUUCUCGAUCUAACAAAAAAGACAAAUCUGCCAUAAAGCUUGAGAGCAUCUUCGGAUGCAGAGGCGGCAGCCUUCGGUGGCGCGAUAGCGCAAACGUUCUCAACUAUGACACGCAAAACGCGUGCUCCGUUGAAUGAAGUUUAUCAUG [C38U C96A G141A]: the “polymerase ribozyme fitness (log ratio)” value was -0.0442.

Take GGAUCUUCUCGAUCUAACAAAAAAGACAAAUCUGCCACAAAGCUUGAGAGCAUCUGCGGAUGCAGAGGCGGCAGCCUUCGGUGGUGCGAUAGCGCCAACGUUCUCAACUAUGACACGCAAAACGCGUGCUCCGUUGAAUGGAGUUUAUCAUG [U56G C85U]: the “polymerase ribozyme fitness (log ratio)” value is -1.42.

Consider GGAUCUUCUCGAGCUAACAAAAAAGACAACUCUGCCACAAAGCUUGAGAGCAUCUUCGGAUGCAGAGGCGGCAGCCUUCGGUGGAGCGAUAGCGCCAACGUUCUCAACUAUGACACGCAAAACGCGUGCUCCGUUGAAUGGAGUUUAUCAUG [U13G A30C C85A], for which the “polymerase ribozyme fitness (log ratio)” value is ≤ -4.2. The same measure for GGAUCUUCUCGAUCUAACAAAAAAGACAAAUCUGCCACAAAGCUUGAGAGCAUCUUCGGAUGCAGAGGCGGCUGCCUUCGGUGGUGCGAUAGCGCCAACGUUCUCAACUAUGACACGCAAAACGCGUGCUCCGUUGAAUGGAGUUUAUCAUG [A73U C85U]: -0.649. For GGAUCUUCUCGAUCUAACAAAAAAGACAAAUCUGCCACAAAGCUUGAGAGCAUCUUCGGAUGCAGAGGCGGCAGCCUUCAGUGGCGCGAUAGCGCCAACGUUCUCAACUAUGACACGCAAAACGCGUGCUCCGUUGAAUGGUGCUUAUCAUG [G80A A142U U144C], the “polymerase ribozyme fitness (log ratio)” value is -3.55. The same measure for GGAUCUUCUCGAUCUAACAAAAAAGACAAAUCUGACACAAAGCUUGAGAGCAUCUUCGGCUGCAGAGGCGGCAGCCUUCGGUGGCGCGAUAGCGCCGACGUUCUCAACUAUGACACGCAAAACGCGUGCUCCGUUGAAUGGAGUGUAUCAUG [C35A A60C A97G U145G]: ≤ -4.2. Regarding GGAUCUUCUCGAUCUAACUAAAAAGACAAAUCUGCCACAAAGCUUGAGAGCAUCUUCGGAUGCAGAGGCGGCAGCCUUCGGUGGCGCGAUACCGCCAACGUUCUCAACUAUGACACGCAAAACGCGUGCUCCGUUGAAUGGAGUUUAUCAUG [A19U G92C], the “polymerase ribozyme fitness (log ratio)” value was -1.68. The same measure for GGAUCUUCUCGAUCUAACAAAAAAGACAAAUCUGCCACAAAGCUUGAGAGCAUCUUCAGAUGCAGAGGCGGCAGCUUUCGGUGGCGCGAUAGCGCCAACGGUCUCAACUAUGACACGCAAAACGCGUGCUCCGUUGAAUGGAGUUUAUCAUG [G58A C76U U101G]: 0.481. The same measure for GGAUCUUCUCGAUCUAACAAAAAAGACAAAUCUGCCACAAAGCUUGAGAGCAUCUUCGGAUGCAGAGGCGGCAGCUUUCGGUGGCGCGAUAGUGCCAACGUUCUCAACUAUGACACGCAAAACGCGUGCUCCGUUGAAUGGAGUUUAUCAUG [C76U C93U]: -2.28; for GGAUCUUCUCGAUCUAACAAAAAAGACAAAUCUGCCACAAAGCUUGAGAGCAUCUUCGGAUGCAGAGGCGGCAGCUUUCGGUGGCGCGAUAGUGCCUACGUUCUCAACUAUGACACGCAAAACGCGUGCUCCGUUGAAUGGAGUUUAUCAUG [C76U C93U A97U]: -0.802.
